Laboratory results reported in the DeepSol protein solubility set.

Assay: soluble on expression in E. coli; label from the status in PepcDB or PDB records

Sequence | soluble on expression in E. coli
MGSDKIHHHHHHMSDIDFAKKMSFQRHFSRPKTAESEYAIVRQFESDRGRIINSAAIRRLQQKTQVFPLERNAAVRSRLTHSMEVQQVGRYIAKEILHRLQADERLASLGLADRETPFESLVEMACLMHDIGNPPFGHFGESAINQWFRKLLDSHYLDNESPERVDDCKVPTLRMQQDGLDDLRGQIRQDLSHFEGNAQAIRLVHTLLKLNLTYGQVACILKYTRPAYWHGELPADYNYLMKKPGYYLSEEAFVAKLREELDMGEFHRHPLSYIMEAADDVSYCIADLEDAVEKDILTIEELYDRLRENWGTGAEKDIFAKTIERAYKERERFQWRSHDDQFFMNLRVYTVGQMVPHAALRFIDNLPEIYTGSFNQALLEDDSPQNRLLGIFKHVALKHVFNHHEVEQLELQGDRVIRGLLDIYSPLLDMPYQDFSQLVSADTHKRYPIETRLYHKLSSKHCLAYREAVTELDGVAEPERIIREYYYRARLIQDYISGMTDLYAYDEYRMLMAAD | not soluble
MANEANPCPCDIGHKLEYGGMGHEVQVEHIKAYVTRSPVDAGKAVIVVQDIFGWQLPNTRYMADMIARNGYTTIVPDFFVGQEPWDPAGDWSTFPAWLKSRNARKVNREVDAVLRYLRQQCHAQKIGIVGFCWGGVVVHQVMTAYPDIRAGVSVYGIIRDSEDVYNLKNPTLFIFAENDTVIPLEQVSTLTQKLKEHCIVNYQVKTFSGQTHGFVHRKREDCSPADKPYIEEARRNLIEWLNKYV | not soluble
MATGGLAIIQSMKHKLPPSERKLADYILAHPHKAIESTVNEISALANSSDAAVIRLCKSLGLKGFQDLKMRVAGDLAKPTFQGYRDIVPHEPLPSISEKTAGNAIQAI | soluble
MNRKGNMKRKTLKNIVEYDGIGLHKGEIIKMKLIPAKSGGIIFRMVNMPEGKNEILLDYRNIFDLTRGTNLKNEHGAMVFTIEHFLSALYVLGITDLVIELNGNELPICDGSAIKFLDLFQESGIVELDEYVEEIIVKEPIFLSKGDKHVIALPYPDGYKLTYAIRFEHTFLKSQLAEFEITEKNYRKEIASARTFGFDYEVEYLKQNNLALGGTLENAIVIKKDGVLNPDGLRFDDEFVRHKMLDIIGDLKILNRPIRAHIIAIKAGHLIDIEFAKILDNIKLEHHHHHH | soluble
MAHHHHHHMGISVSHLLERLRTLFEPLEVVCALQLKCLLETRQLDYCNVSLNELQRAEAGLRSLLVDHPLDIEVGAQWEHLEDELQRLHVRFSVPVPTFRLLVRRSARALRSAVRALGWDGKIQRRLWQEEGEEPRDDGVQEPLRAFDAGGLSTCTVDEICNEGGVQDRSAAVFSAVAKLYHHRLALGAQSLVAAERLGPALGANVRAASRVPSLTLPNSAADPTHPRFKADLYAVSPDALSCTAARREAYAAS | not soluble
MSLIEPDHPQLSIGQQCKLLSISRSSFYYTPKGETDQNLSLMRQIDEQFLETPFFGVRQMTWHLRNEHHLVNEKRIRRLMRLMGLMPIYQKPNNTSRPGRGHKTYPYLLRGLRVDRPNQVWCSDITYLPMRRGFLYLVAIMDWHTRKVLAWRISNTLEADFCVEALNEAIHKFGPPEIMNTDQGSQFTSFAWTDRLRRSGVRISMDGKGRFLDNIFIERLWRTLKYECVYLHAWETGSEAKAGIRKWMTFYNSASLRPSFYVVEGNRFCEGHHHHHH | not soluble
METEDHAFRIEDIFPFLDPYVSKWFDINYRSLTEPQKYAIPFIHEGRNVLVSSPTGTGKTLTAFLSIINELFMLARSGKLEDKIYCVYISPLKALANDVNKNLRAPLEGIYKIADEDGINLPKIRVSVRSGDTSEGERQKMARKPPHILITTPESFSLTLSSPRMRENLRDVKYVIIDEIHEISSTKRGSLLSANMERLEALRPGILRIGLSATQSP | not soluble
MSLKDGTFQIAIFSDMHFGQYESTTGPEQDRNSVEVLNKVLDYDTPDLVVLNGDLINGDSTWKHNSTHYIDMIVEPMVNRSLTWASTYGNHDHNYNINGDDILVREQMWPGARTQKMVNKTRSGTTNYYLPVYPSDCSNTSDCSPQMILWFFDSRGGNYYQGSWQENWVDQSVVDWFNETSTELTSKHNKTIPSLAFVHVPPNATVALQTELGIRKNNQPGINDDPPVPQQGYGWCADGTPTYDCPYGGQDIPFMEALVTIPGIIGLFYGHDHGNTWCYRWDTKLDGMDIEGNGIHLCYGQHSGYGGYGDWIRGAREIVVTEDMLEKNEVETYIRLESGDVVGKVMLNSTYNEGHHHHHH | not soluble
MVQHSDEKGGAMTTLAIDIGGTKLAAALIGADGQIRDRRELPTPASQTPEALRDALSALVSPLQAHAQRVAIASTGIIRDGSLLALNPHNLGGLLHFPLVKTLGQLTDLPTIAINDAQAAAWAEYQALEGDITDMVFITVSTGVGGGVVSGGKLLTGPGGLAGHIGHTLADPHGPVCGCGRTGCVEAIASGRGIAAAAQGELAGADAKTIFMRAGQGDEQAQQLIHRSAHVLARLIADIKATTDCQCVVVGGSVGLAEGYLALVETYLAQEPAAFHVDLLAAHYRHDAGLLGAALLAQGEKL | soluble
SQHFGRPRTTHEFLFGALAELVDNARDADATRIDIYAERREDLRGGFMLCFLDDGAGMDPSDAASVIQFGKSAKRTPESTQIGQYGNGLKSGSMRIGKDFILFTKKEDTMTCLFLSRTFHEEEGIDEVIVPLPTWNARTREPVTDNVEKFAIETELIYKYSPFRTEEEVMTQFMKIPGDSGTLVIIFNLKLMDNGEPELDIISNPRDIQMAETSPEGTKPERRSFRAYAAVLYIDPRMRIFIHGHKVQTKRLSCCLYKPRMYKYTSSRFKTRAEQEVKKAEHVARIAEEKAREAESKARTLEVRLGGDLTRDSRVMLRQVQNRAITLRREADVKKRIKEAKQRALKEPKELNFVFGVNIEHRDLDGMFIYNCSRLIKMYEKVGPQLEGGMACGGVVGVVDVPYLVLEPTHNKQDFADAKEYRHLLRAMGEHLAQYWKDIAIAQRGIIKFWDEFGYLSANWNQPPSSELRYKRRRAMEIPTTIQCDLCLKWRTLPFQLSSVEKDYPDTWVCSMNPDPEQDRCEASEQKQKVPLGTFRKDMKTQEEKQKQLTEKIRQQQEKLEALQKTTPIRSQADLKKLPLEVTTRPSTEEPVRRPQRPRSPPLPAVIRNAPSRPPSLPTPRPASQPRKAPVISSTPKLPALAAREEASTSRLLQPPEAPRKPANTLVKTASRPAPLVQQLSPSLLPNSKSPREVPSPKVIKTPVVKKTESPIKLSPATPSRKRSVAVSDEEEVEEEAERRKERCKRGRFVVKEEKKDSNELSDSAGEEDSADLKRAQKDKGLHVEVRVNREWYTGRVTAVEVGKHVVRWKVKFDYVPTDTTPRDRWVEKGSEDVRLMKPPSPEHQSLDTQQEGGEEEVGPVAQQAIAVAEPSTSECLRIEPDTTALSTNHETIDLLVQILRNCLRYFLPPSFPISKKQLSAMNSDELISFPLKEYFKQYEVGLQNLCNSYQSRADSRAKASEESLRTSERKLRETEEKLQKLRTNIVALLQKVQEDIDINTDDELDAYIEDLITKGD | soluble
MGSDKIHHHHHHMQLPISQYNELLQKKLEKLTALLHPFNAPDIQVFDSPTSHYRMRAEFRIWHEQDDFYHIMFDQATLQRYRVDEFPIASMLINRMMQTLLPLLKQQEVLHKKLFQIDYLSTLSNKIIVSLLYHKTLTEEWESAAKNLKDLLEKQDFDVQIIGRASKQKICFEQDYVDEVLPVNGRNYVYRQVENSFTQPNATVNCKMLEWAIDCTQNSEGDLLELYCGNGNFSIALAQNFRKVLATEIAKPSVAAAQFNIAENKVDNLQIIRMSAEEFTQAMNGVRAFNRLKGIDLKSYECNTIFVDPPRAGLDPDTVKLVQNYDRILYISCNPHTLCDNLVELSKTHRIEKAALFDQFPYTDHMESGLWLIRK | not soluble
MGSDKIHHHHHHMESKSAVQLYLELLKKTILFEIWLEYEAYLPASLHISKELEFEPVTVPLPLFIKQYAENHNLKIVKPNVSKSERHDGMDWPRAAHSMIGRERMNQLQEAMETVVRENIEGDFIETGVWRGGSCIFMNGFLQANNITDRNVWVADSFEGLPAPNLEQYPKDYGDYLHTFDYLRVSLEQVQENFKKYDLLNDQVKFLKGWFKDTLPTAPIAAIAIARLDGDMYESTMDGLVNLYDKVSKGGYIIIDDYGLPPCAEAVTDFRNHRNLKAPITKIDVFGVYWRKE | not soluble
MGSDKIHHHHHHMERIEAGMSVMTLKKQTYRVIAVINQGQELLVRAHEPETADIEIIPVTTVVQVTEQNSTGDAAVALDTVTVVGERYVDDIVATLTTLRVGMAVLLQRESGNQYDDNAISVWTLQHAKLGYIARYQNQPYATLMDQGQRLYGIVTVLDQQKQHLELMLWRTTAVPSPIEALQIRQRLAKPRTNLGAVPTHSLQTPLGTIVMMCNGHPIKYQQVPLSPWLTPADELHVTKRYLLTPDWSQVPPDSLITCQVTAKADVVQRWQNEHISAAVLTNASSFYVVGISAQTKTGLNDNLVDDAAQPAVIYRVGQVSAHMQAGFMVSWAPFGDPRVQPALKLALHFSSQPLVPYHPVTPSRTNATFTQQELAALLVSALPNYQGGQRLEPSVTTITVEKLRQTLGDQTYHALANYQRHVQLVAGSTEGVNETLLQALIHAVTYHELTTMHYYQPTVGMVDQVIYPIQLFSTTTKDEDDAQLVGCLALYNYETFEIQQVPLTAIARIAIIADPEHPQTTPETESPDWLRIFLHGWNDDF | not soluble
RPDPFPQNGLPAARLAMVAREMGHIAPFVRAVYAAQFGRGLVISDPQVLAECWAEAGLPPEAMEQAKSPEIKAALFAQGERAAALDLFGAPSFVVGEEVFWGDDRLDQALALAAQS | not soluble
MDFHIRKATNSDAEAIQHVATTSWHHTYQDLIPSDVQDDFLKRFYNVETLHNRISATPFAVLEQADKVIGFANFIELEKGKSELAAFYLLPEVTQRGLGTELLEVGMTLFHVPLPMFVNVEKGNETAIHFYKAKGFVQVEEFTEDFYGYPLETIRFNLNHHAFEEE | not soluble
MKQRPKEYYEQLEELQAVDFTLVELTLYLDTHPTDYQAIQQFNQLAQKRKQLKKQFEAAYGPLEQFGHSYSNYPWNWDDTPWPWQV | not soluble
MAKITEENYVSLEDLMQLLNSSESTIRRDLGELEQEGRLHRVHGGAELFHSLQEELSNQEKSVKNSHIKKAIAQRASQLIYDNDVIFIDAGTTTEFLLPFLQAKNLTVVTNSIHHAARLVELSIETIIVGGYVKQTTDASIGNVALEQIRQMNFDKAFLGMNGVDDSYLTTPDMEEAVIKKAVLSNAKLAYILVDGTKIGQVSFVKVAPINDVTIITLGGSASILKQIKEKAKVIEL | soluble
MAVTTTSESAAEFKEKNVSPVKVEFINAPEKDPGLNVEWQIQGTGYNNEGSGSVIYVRMKNLNDVAIPADAFDDPVLTINGTEASRVEAGTVDLDLPLGPGATTNLQFAFGTGYGSLSDAKLVLGNCIFEGNLSNI | not soluble
MGSDKIHHHHHHMKGLDYCRQKAEESRSSFLSGFRFLTQEKQDAVTVLYAFCRELDDVVDECSNPDVAQATLNWWRGDLDNAFGGAMPEHPVNQALRQVKETFKLPKYELEALIDGMQMDLVQARYGSFEELKLYCRRVAGVVGCLIARILGFSDGKTLEYADKMGLALQLTNIIRDVGEDARRGRIYLPMEEMQRFDVPASVILQCSPTGNFAELMAFQIKRARETYREAVSLLPDADKKAQKVGLVMAAVYYALLNEIDRDGAQNVLKYKIALPSPRKKRIALKTWLFGFKPRPGTPERA | not soluble
MSLELPAEVQEMPIYREWISGILAGKIASPFWEMAQPQKNQHCLDIGCGVSFLIYPWRDWQAFFYGQDVSNVARDTLNSRGSQLNSKLFKGVELGAAHQLKYTLSYFDLAIATGFSCYFPLEYWTSVLQAVKRVLKPDGHFVFDILNAAHPQAEDWAVLETYLGAEVFLEPVTEWEKIINAAGAKVVGRQPGEFFDLYKLRLEHHHHHH | soluble
MGHHHHHHSHALKAGKTASGAGEVVRCLSEQSVAISRCAGGAGARLPALLDEQQVNVLLYDMNGCYSRLKELVPTLPQNRKVSKVEILQHVIDYIRDLQLELNSESEVGTPGGRGLPVRAPLSTLNGEISALTAEAACVPADDRILCR | not soluble
